According to doi:10.1101/2025.11.03.686288:

Columns and labels:
[1] = target: C-terminal His6-tagged PEX19 full-length (T. brucei); assay: AlphaScreen or HTRF
[2] = target: N-terminal GST-tagged PEX38 full-length (T. brucei); assay: AlphaScreen or HTRF
[3] = target: TbPEX38 (65-134) (T. brucei); assay: ITC

GST-PEX3Δ1-44 (domain or fragment)
fold higher affinity for PEX19 than PEX38 [1]: 30 fold

untagged PEX38 full-length (natural protein)
IC50 [1]: 950 nM

C-terminal His6-tagged PEX19 N50 (domain or fragment)
fold weaker interaction with PEX38^FL than PEX19^FL (AlphaScreen signal) [2]: 10 fold

TbPEX19 (1-50-SGGY) (domain or fragment)
Kd [3]: 3000 nM

TbPEX38 (65-134) (domain or fragment)
IC50 [1]: 446 nM
